Columns and labels:
Fc-CD22 [1] = target: Fc-CD22 (UniProt P20273); experiment: SPR (BIAcore 2000); 2nd mAb on Fc-CD22 pre-saturated with G5/44 (competitor G5/44)
Fc-CD22 [2] = target: Fc-CD22 (UniProt P20273); experiment: SPR (BIAcore 2000); inhibition of 2nd mAb binding to Fc-CD22 by prior saturation with G5/44 (competitor G5/44)
Fc-CD22 [3] = target: Fc-CD22 (UniProt P20273); experiment: SPR (BIAcore 2000); Fc-CD22 pre-saturated with G5/44 (competitor G5/44); combined response of G5/44 and 2nd mAb
Fc-CD22 [4] = target: Fc-CD22 (UniProt P20273); experiment: SPR (BIAcore 2000); 2nd mAb on Fc-CD22 without G5/44

| Response 3 (Response 2-1) (RU) (Fc-CD22 [1]) | Response 3 adjusted for OFF rate of G544 (RU) (Fc-CD22 [1]) | Inhibition by G544 (%) (Fc-CD22 [2]) | Response 2 after 2nd Anti-CD22 mAb (RU) (Fc-CD22 [3]) | Binding of 2nd mAb without G544 adjusted for background (RU) (Fc-CD22 [4]) | Substance |
| --- | --- | --- | --- | --- | --- |
| -83.5 | 0 | 0 | 603 |  | anti-CD19 antibody BU12 (Celltech, Slough, UK) |
| -81.8 | 1.7 | 91 | 629 | 19.3 | anti-CD22 mAb HD239 (Santa Cruz Biotech) (antibody) |
| 652 | 736 | 0 | 1340 | 739 | anti-CD22 mAb 4KB128 (Dako Corp) (antibody) |
| -74.5 | 9 | 69 | 580 | 29.3 | anti-CD22 mAb SHCL-1, Leu 14 (Becton Dickinson) (antibody) |
| 487 | 570 | 7 | 1160 | 615 | anti-CD22 mAb To 15 (Dako Corp) (antibody) |
